These results are taken from US20220273793A1, “HORSE IL-31 INDUCED PRURITUS MODEL” (priority 2021, published 2022).

Where “and” joins values, the source holds several entries; their conditions need not be identical. Identical values can stand only once.

Series [1] deals with IL-31 induced pruritus. Put plainly: Oclacitinib maleate in equine model of IL-31 induced pruritus. Type of series: in vivo, Horse. Further details: key to Post Treatment Score (pruritus): cumulative count of yes responses (1 per behavior per 1-min interval). Conditions: for Post Treatment Score (pruritus) / % Change vs Historical Score: individual horses. The method, then: Horses were administered either carrier only or oclacitinib maleate tablets at a determined number of hours prior to IL-31 challenge administration. […] Blood samples for pharmacokinetic analysis were collected at the time of IL-31 administration and immediately following the post-challenge observation period. Due to limited number of observation stalls, horses were challenged in batches. Batch 1 will include T01 (n=2)+T02 (n=5). Batch 2 will include T01 (n=2)+T03 (n=5). Batch 3 will include T01 (n=2)+T04 (n=5) (Table 9)
Signs of pruritus in horses include: • Biting or scratching at self • Rubbing against objects • Feet stomping • Tail flicking • Head or body shaking • Rolling • Twitching of skin
A “yes” response was indicated by marking a “1” in the space provided for the specific behavior during the one minute interval. The cumulative number of yes responses per behavior were added to determine a cumulative pruritus score for each horse.

Series [2] relates to beagle dogs. The note with it: 1.5 μg/kg intravenous challenge dose; cited from earlier work.
The test system of series [3] is Horse. Put plainly: Equine IL-31 induced pruritus model via IL-31 challenge (dose finding). Type of series: in vivo. The method, then: Three to eight horses were tested at one time. Dose level depended on the pruritic response from the previous dosing group. The final desired dose was repeated. The final study design was as follows (Table 1):
Observations of normal pruritic behavior (baseline pruritus scores) were made prior to the administration of IL-31 challenge. The horses were scored the same was as post challenge observations except no IL-31 challenge was administered and observation of normal pruritic behavior was made for 30 minutes.
Following baseline pruritus score, horses were administered the IL-31 challenge. IL-31 challenge was administered intravenously to each animal via a jugular vein. The horse ID and time of administration was recorded. Recording of pruritic activity began approximately 15 to 25 minutes after the last of the horses is administered the IL-31 challenge (Table 2 (A to F) below and FIG. 1).
Classical signs of pruritus in horses include: • Biting or scratching at self • Rubbing against objects • Feet stomping • Tail flicking • Head or body shaking • Rolling • Twitching of skin
A “yes” response was indicated by marking a “1” and a “no” response was indicated by marking a “0” during the one minute interval. The cumulative number of yes responses were added to determine a cumulative Pruritus Score for each horse.

Series [4] deals with T1, IL-31 (Canis lupus familiaris, UniProt A0A8I3S3D1).
T1 construct: host or cells: endogenous IL-31 of client dogs with atopic dermatitis
T1 sequence (A0A8I3S3D1 24-159): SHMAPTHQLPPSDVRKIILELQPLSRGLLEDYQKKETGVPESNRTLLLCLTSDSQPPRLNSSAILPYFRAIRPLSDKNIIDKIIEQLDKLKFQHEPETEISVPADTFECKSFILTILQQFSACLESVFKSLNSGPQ
The note with it: dogs with atopic dermatitis; cited from earlier work.

The mark [5] stands for this setting: IL-31 0.05 μg/kg IV, average (Table 2E).
Where [6] appears, read: IL-31 0.1 μg/kg IV, average (Table 2D).
Setting [7] is: IL-31 0.25 μg/kg IV, average (Table 2C).
Where [8] appears, read: IL-31 0.25 μg/kg IV, repeat in second set of horses, average (Table 2F).
[9] abbreviates: IL-31 0.25 μg/kg IV, repeat in second set of horses, individual horses (Table 2F).
[10] abbreviates: IL-31 0.5 μg/kg IV, average (Table 2B).

On to Oclacitinib maleate, for which the “Post Treatment Score (pruritus)” value is 21 and 94 and 91 and 86 and 46 in series [1] (T02: 0.25 mg/kg oral, IL-31 0.25 mcg/kg challenge 1.5 hr after dosing); 49 and 90 and 86 and 50 and 72 in series [1] (T03: 0.25 mg/kg oral, IL-31 0.25 mcg/kg challenge 21.5 hr after dosing); 49 and 87 and 46 and 53 and 99 in series [1] (T04: 0.25 mg/kg oral, IL-31 0.25 mcg/kg challenge 4.5 hr after dosing). Besides, the “% Change vs Historical Score” value was −68.89% and 6.21% and −5.70% and −9.47% and −31.85% in series [1] (T02: 0.25 mg/kg oral, challenge 1.5 hr after dosing); −3.92% and 65.14% and 17.81% and −29.08% and −5.88% in series [1] (T03: 0.25 mg/kg oral, challenge 21.5 hr after dosing); −55.05% and −22.32% and −54.23% and −45.92% and −6.16% in series [1] (T04: 0.25 mg/kg oral, challenge 4.5 hr after dosing). The “reduction in average pruritic score compared to the placebo group (T01)” value is 30% in series [1] (T02: 0.25 mg/kg, challenged 1.5 hours after treatment); 29% in series [1] (T03: 0.25 mg/kg, challenged 21.5 hours after treatment); 31% in series [1] (T04: 0.25 mg/kg, challenged 4.5 hours after treatment).

B1: recombinant canine IL-31: recombinant canine IL-31 used as intravenous challenge in beagle dogs (protein)
chain: SHMAPTHQLPPSDVRKIILELQPLSRGLLEDYQKKETGVPESNRTLLLCLTSDSQPPRLNSSAILPYFRAIRPLSDKNIIDKIIEQLDKLKFQHEPETEISVPADTFECKSFILTILQQFSACLESVFKSLNSGPQ
Consider B1, for which, in series [2], the pruritus duration is under 24 h.

B2: IL-31: recombinant histidine tagged equine IL-31 polypeptide, SEQ ID NO: 10 less signal sequence, used as IV challenge material (protein)
chain: GPIYQLQPKEIQAIIVELQNLSKKLLDDYLNKEKGVQKFDSDLPSCFTSDSQAPGNINSSAILPYFKAISPSLNNDKSLYIIEQLDKLNFQNAPETEVSMPTDNFERKRFILTILRWFSNCLEHRAQHHHHHH
Take B2: the “Post Challenge Pruritus Score/120” value in series [3] (IL-31 0.05 μg/kg IV, 120 min observation, individual horses (Table 2E)) is 50 and 36 and 67 and 43 and 25 and 42 and 45 and 37; in series [3] (IL-31 0.1 μg/kg IV, 120 min observation, individual horses (Table 2D)) it was 62 and 72 and 115 and 74 and 71 and 86 and 96 and 103; in series [3] (IL-31 0.25 μg/kg IV, 120 min observation, individual horses (Table 2C)) it was 95 and 84 and 109 and 81 and 86 and 113 (2×); in series [3] (setting [9]), 56 and 20 and 11 and 87 and 68 and 86 and 52 and 81; in series [3] (IL-31 0.5 μg/kg IV, 120 min observation, individual horses (Table 2B)), 120 (2×) and 70 and 117 and 106 and 93 and 110; in series [3] (IL-31 1.0 μg/kg IV, 120 min observation, individual horses (Table 2A)), 120 (2×) and 104. Also, the “Post Challenge Pruritus %, Average” value in series [3] (setting [5]) is listed as 36%; in series [3] (setting [6]), 71%; in series [3] (setting [7]), 81%; in series [3] (setting [8]) it was 48%; in series [3] (setting [10]), 88%; in series [3] (IL-31 1.0 μg/kg IV, average (Table 2A)) it was 96%. Moreover, the “Post Challenge Pruritus Score/120, Average” value in series [3] (setting [5]) came out at 43.1; in series [3] (setting [6]), 84.9; in series [3] (setting [7]), 97.3; in series [3] (setting [8]), 57.6; in series [3] (setting [10]), 105.1; in series [3] (IL-31 1.0 μg/kg IV, 120 min observation, average (Table 2A)) it was 114.7. The “Post Challenge Pruritus %” value in series [3] (IL-31 0.05 μg/kg IV, individual horses (Table 2E)) was 42% and 30% and 56% and 36% and 21% and 35% and 38% and 31%; in series [3] (IL-31 0.1 μg/kg IV, individual horses (Table 2D)), 52% and 60% and 96% and 62% and 59% and 72% and 80% and 86%; in series [3] (IL-31 0.25 μg/kg IV, individual horses (Table 2C)), 79% and 70% and 91% and 68% and 72% and 94% (2×); in series [3] (setting [9]), 47% and 17% and 9% and 73% and 57% and 72% and 43% and 68%; in series [3] (IL-31 0.5 μg/kg IV, individual horses (Table 2B)), 100% (2×) and 58% and 98% and 88% and 78% and 92%; in series [3] (IL-31 1.0 μg/kg IV, individual horses (Table 2A)), 100% (2×) and 87%. In addition, in series [3] (IL-31 1.0 μg/kg IV, first three horses, given diphenhydramine), the “Animal health observations after post challenge observation period” value is “uncomfortable level of pruritus and needed treatment”. In series [3] (IL-31 0.05-1.0 μg/kg IV, horses), the “Animal health observations: adverse events of anaphylaxis” value is “No adverse events of anaphylaxis were noted”.

B3: Cytopoint: canine anti-IL-31 monoclonal antibody (mAb) produced by Zoetis Inc. (antibody, chains of the INN, looked up, V domains shown)
VH: EVQLVESGGDLVKPGGSLRLSCVASGFTFSNYGMSWVRQAPGKGLQWVATISYGGSYTYYPDNIKGRFTISRDNAKNTLYLQMNSLRAEDTAMYYCVRGYGYDTMDYWGQGTLVTVSS
VL: EIVMTQSPASLSLSQEEKVTITCKASQSVSFAGTGLMHWYQQKPGQAPKLLIYRASNLEAGVPSRFSGSGSGTDFSFTISSLEPEDVAVYYCQQSREYPWTFGQGTKLEIK
In the case of B3, the “effect on pruritus and skin lesions” value in series [4] is “reduce pruritus and skin lesions”.
